Test results reported in the supplement of paper PMC12042874.
± gives the uncertainty stated by the source.

Assay: amyloid nucleation score (Sup35N fusion, yeast selection) (log enrichment); library NNK3; higher = more nucleation; inactive = no reads after selection
Method in brief: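 Using DiMSum, nucleation scores were taken as the log enrichment of output over input reads, centred on the mode score of non-aggregating sequences. The input and output reads came from Illumina sequencing of plasmid inserts, with sequences under 100 input reads excluded. The yeast were psi-negative, expressed Sup35N fused to peptides of 20 random codons, were induced with 100 μM copper sulfate for 24 hours, and were grown 7 days at 30°C on medium lacking adenine and uracil.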

| Substance | amyloid nucleation score |
| --- | --- |
| IEFGVCKVRNVVNDVRFRRG | inactive |
| NWGRKCLFSSWCLLYVDNGT | 0.555 ± 0.2 |
| QKMPSANDRLCISSFLYNLE | inactive |
| RPNFDYTIWSMTNWILFTCD | inactive |
| FSNGPSAVYYFIYLGLFNKN | 1.48 ± 0.072 |
| IWISLGAMIMFMVN | inactive |
| YPRDWGYALRLYYVEKKLR | inactive |
| RKWMHMDASVCVTIYWDAGL | 0.38 ± 0.4 |
| NALCSHTILLYGEVMLKSWL | inactive |
| FGFCCKAPCVGSLWVPSVVT | inactive |
| KWRDIIYCIYSIMIDSCTSR | inactive |
| SLLSEMSTR | inactive |
| KFHWWDTCTDVKSRLKVDVE | inactive |
| ILWQYQTCC | -0.457 ± 0.73 |
| GYQDAFIP | inactive |
| TETSWDGVVLSLISCRFQSY | 3.02 ± 0.079 |
| FPLESG | inactive |
| LDLDVDNVSSDGKTWMGLV | inactive |
| CEKDRMNLWLTRDG | inactive |
| YLESGLTS | inactive |
| NKAYCWTLYLGMINDCIRFY | inactive |
| SRHRNYHFCRILQCGFERSW | -0.526 ± 0.93 |
| LCTSLLKF | -0.5 ± 0.9 |

| Substance | amyloid nucleation score |
| --- | --- |
| FHYCCYITAAQYYDACCVVP | inactive |
| SGLIQNTRR | -0.428 ± 1.1 |
| VCLLNWFWIYDQYVRQLTVV | inactive |
| NGLVCQKWRPYSI | inactive |
| YDYTRCLLYFVALRYQGGNS | inactive |
| LVVIWSRYSPRRNYPVTSNM | 0.679 ± 0.24 |
| NLLKSTYSVIASCASLLDLV | inactive |
| RDMPLMGVYKIPVDAFYSVS | inactive |
| SYGNCSSMHGPVKMLRICHQ | inactive |
| VVCMDLCFLAGSSMSDLDGC | inactive |
| VNVRHTGSLTFFF | 1.01 ± 0.12 |
| LCLVSLVIHHGYVLVT | inactive |
| WLNKWTHGVIANFYVVSGHP | 1.64 ± 0.075 |
| DKNSWLYSASEYIWFFNTES | inactive |
| LPICDQTIWFLPSRAVAGNV | inactive |
| NWGSYSMDMRSCSGINRRP | inactive |
| RVMSWMILNKYVKIPYCRHR | inactive |
| PGYSHVRLVVSSPPLWTDLA | inactive |
| DFRLPNSPYAHCYLMHRLII | inactive |
| CAHKSGQACKHGVF | 0.533 ± 0.4 |
| HEKSIRVESMAVLIRPVTRS | inactive |
| NTEGCSSQICRN | inactive |
| DAIPARVYYGCQFILCRNDL | 2.85 ± 0.084 |

| Substance | amyloid nucleation score |
| --- | --- |
| NTPGYSELIVFGST | inactive |
| WVRSFMSLCFW | 0.974 ± 0.089 |
| DSLAVFNNVRRSMTVSRSAA | -0.89 ± 1.3 |
| RYDWLLGSVWVFLLA | inactive |
| SGPGRSACSFYNAIFMRRFQ | inactive |
| SNLRFFVAFLQGRSLN | 0.959 ± 0.23 |
| SWVYGSSDPSRVSSCLVGVL | inactive |
| RKFTVSISRGNWSHAWTYSE | inactive |
| VCFFRVKRSYSNIFYTRRCR | inactive |
| SFAGVCAMCKTCKRAKGVPA | -0.39 ± 1.9 |
| FSEASPLYVTSPRQSSLPRP | inactive |
| ICSFRTWA | 0.978 ± 0.1 |
| NHKPLWFFDVATTGTGLNR | inactive |
| LFRFS | inactive |
| YRTRESGLY | -0.425 ± 1.1 |
| FLPPKMVLFPVSEWSLDLRY | inactive |
| CVHNLN | inactive |
| TYLCFYTKRPDAVYWSTLDH | inactive |
| CFSFYVGCGRMQEPPRLGAG | 0.785 ± 0.18 |
| FIWVFCD | inactive |
| MTLHAILFLTRSLDALYLLT | inactive |
| DSTSLKIGRNAMSHHKSNPC | 1.09 ± 0.11 |
| ILAFLERYTLMWFRELYNAS | inactive |

| Substance | amyloid nucleation score |
| --- | --- |
| SVGEKGN | inactive |
| SIILVYKLE | inactive |
| NVTDVMRNISMTQLMFYLFA | 1.74 ± 0.062 |
| MYRCNVGLLGVFPRCNPYDA | inactive |
| GRDAVHHCMLRESQRKLREV | inactive |
| TCSRIQLISNWFRVQLKSNV | inactive |
| GLHVTCGRDYHGWMGDCSMA | inactive |
| CTQGMVYIS | inactive |
| TARPSNKMNHRECCTNKFFP | inactive |
| IYIRVRMDEFLMSVTTIARG | inactive |
| NSFSLGNSLNPYKAAPRRML | inactive |
| SARVRAVAMFPPPALT | inactive |
| VPRMSALRESFHKDNS | inactive |
| WTGFFCNAVKTTTGFNALFL | inactive |
| GFSGPSLGQIAG | inactive |
| RNSRSLSLPCC | inactive |
| AFFGCCYGRDLVEHW | 1.49 ± 0.1 |
| VAFTLIVRFCS | inactive |
| CSPRTWCFGYNLFDM | 2.5 ± 0.074 |
| VLVVCSLSAC | inactive |
| SEMHRERDTMCKVLPDNDKN | inactive |
| SVNPAKHVMCKRAPGCGKLH | inactive |
| MCMLIYCYAQSLVMKMDSHY | inactive |

| Substance | amyloid nucleation score |
| --- | --- |
| CNRWNHL | inactive |
| DDICIEKARDVVSMSPRSFR | inactive |
| RQHLFRSWEVQMSLSLDF | -0.379 ± 0.63 |
| LMKMHQCDSKVWNEMGDASN | inactive |
| PYFFSLRNPRI | inactive |
| SLRSYSGILSFYGYSGKIST | inactive |
| YPTWKGIFNRWAEYCIRLPV | -0.266 ± 0.36 |
| MRYFFLTRNLGLRAEPVC | inactive |
| TIAVLMLIDCGSRGPFRHLT | inactive |
| IMDDTSQSNRCYYEKVLCRG | 1.34 ± 0.092 |
| VSLRQVS | inactive |
| ILYDDSCLFVTASWTSYVFV | 1.4 ± 0.073 |
| YDCMSRVLAMARATMCRLGD | inactive |
| MFEMS | inactive |
| IYSRELHVCAVSIADFIWFW | inactive |
| CPYSFEAAEYFRYGRVGYFT | inactive |
| ACYNSKRMGGMYNSRVLDHD | inactive |
| DGKGPMVYSGMCCRTFRGLV | inactive |
| LHQSSTGLSC | inactive |
| MVLGELCVPGIFALCRFECN | inactive |
| SDCCGRNHVPEGVLWSQFNY | inactive |
| VYFGSINYRRGGGYGYHSVI | 0.027 ± 0.71 |
| SNGKVTLYKRLRDTSPQGIY | inactive |

| Substance | amyloid nucleation score |
| --- | --- |
| HLWTFEITSTGYL | inactive |
| NDKVYRVGRTNLYNV | inactive |
| FGRQVSDGVASFMSNTSLYR | inactive |
| KMLNYM | inactive |
| TLDPNIHESFFSAACWYSKA | inactive |
| HWFTLSKYGR | inactive |
| NMVNAIFSAVGLQGFRLFPR | inactive |
| ICEPADQV | inactive |
| HANRSCCLPCIHLPFSRVLS | inactive |
| IRYSGFPYPSNLWHTSATLY | inactive |
| SALGSSTSFYNGMRRPFRYH | inactive |
| WVVPSWCHSFPLMIIKRTCC | inactive |
| FLNFSGLPGFVCPVIPSHYV | inactive |
| FSASVVSTGINTSY | inactive |
| AVCEMKIHCYITVPDPSRPR | inactive |
| SNTCHLINAKVDPVHERMLS | 0.176 ± 0.85 |
| TFRIVRFCLKILTCRTC | inactive |
| MLITYTLYCVICLGC | 1.46 ± 0.072 |
| CVMAMPSNIEV | inactive |
| HYADSVESRSALLWLVSFLF | inactive |
| FKLRTDIAMDINVGQDLSGL | inactive |
| SYNGYRSGLFGYGSTVSFIS | inactive |
| AHVSLVSLRKRLPYFGFASV | inactive |

| Substance | amyloid nucleation score |
| --- | --- |
| YSINTFLICYYMVRPY | 2.36 ± 0.065 |
| SVTFTSSVLYEGSKVSAFLL | inactive |
| DSMVCSHCWLFDEGSYVYGQ | inactive |
| VMVCFG | inactive |
| HRLVGTNISSTR | inactive |
| PRSANSARCVTISSNMEHSR | inactive |
| NLSALMLLLQDRDRAISRPR | 0.919 ± 0.21 |
| MYWLHYKVHNYNSCVI | inactive |
| SNCSSWSSPV | inactive |
| KSEFSRSHWESDD | inactive |
| RHVNCLAQLSDCKLTIM | 0.396 ± 0.38 |
| HVFNGY | inactive |
| WSLPSRLIRDVGSSWIYFCL | inactive |
| IRLHLLLGFVV | inactive |
| DTYGVVCEVYAILWMNRPLR | inactive |
| SLTGRWSTVGRSMGLNTRGG | inactive |
| VFLPGRSIKWFLMAEKLRNH | inactive |
| QYYFSYSINSRLITCALVQG | 0.214 ± 0.37 |
| IPYRLVGMLTVVTCRTSKLC | inactive |
| GLRVQCWECTIRSFGV | 0.448 ± 0.24 |
